Measurements published in the supplement of paper PMC10567573.

B1: PTPRD (parent)
chain: ITWFKDFLPVDTSNNNGRIKQLRS
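Also: lentivirally expressed fusions sorted by FACS into six bins by GFP to DsRed ratio, PSI derived from sequencing read proportions per bin multiplied by bin number.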

Variants of: B1
Experiment: protein stability index of a GFP-peptide fusion (GPS, HEK-293T) (PSI 1-6); higher = more stable
Conditions: c terminus: a fixed tail appended
ITWFKDFLPQDTSNNNGRIKQLRS [V10Q] gave a protein stability index of 2.17. Work on ITWFKDFLPRDTSNNNGRIKQLRS [V10R] yielded a protein stability index of 1.82. Work on ITWFKDFLPSDTSNNNGRIKQLRS [V10S] yielded a protein stability index of 2.15. With ITWFKDFLPTDTSNNNGRIKQLRS [V10T] the protein stability index was 1.76. ITWFKDFLPWDTSNNNGRIKQLRS [V10W] gave a protein stability index of 2.62. ITWFKDFLPYDTSNNNGRIKQLRS [V10Y] showed a protein stability index of 1.89. For ITWFKDFLPVATSNNNGRIKQLRS [D11A], the protein stability index was 1.9. Work on ITWFKDFLPVCTSNNNGRIKQLRS [D11C] yielded a protein stability index of 2.23. In the case of ITWFKDFLPVETSNNNGRIKQLRS [D11E], the protein stability index is reported as 1.99. In the case of ITWFKDFLPVFTSNNNGRIKQLRS [D11F], the protein stability index is reported as 1.9. Variant ITWFKDFLPVGTSNNNGRIKQLRS [D11G] has a protein stability index of 1.99. Work on ITWFKDFLPVHTSNNNGRIKQLRS [D11H] yielded a protein stability index of 1.73. For ITWFKDFLPVITSNNNGRIKQLRS [D11I], the protein stability index was 2.44. ITWFKDFLPVKTSNNNGRIKQLRS [D11K] gave a protein stability index of 1.71. ITWFKDFLPVLTSNNNGRIKQLRS [D11L] showed a protein stability index of 1.62. Variant ITWFKDFLPVMTSNNNGRIKQLRS [D11M] has a protein stability index of 2.16. Variant ITWFKDFLPVNTSNNNGRIKQLRS [D11N] has a protein stability index of 2.01. ITWFKDFLPVPTSNNNGRIKQLRS [D11P] gave a protein stability index of 2.06. ITWFKDFLPVQTSNNNGRIKQLRS [D11Q] showed a protein stability index of 1.84. ITWFKDFLPVRTSNNNGRIKQLRS [D11R] showed a protein stability index of 1.35. In the case of ITWFKDFLPVSTSNNNGRIKQLRS [D11S], the protein stability index is reported as 2.06. With ITWFKDFLPVTTSNNNGRIKQLRS [D11T] the protein stability index was 1.61. Work on ITWFKDFLPVVTSNNNGRIKQLRS [D11V] yielded a protein stability index of 1.86. Work on ITWFKDFLPVWTSNNNGRIKQLRS [D11W] yielded a protein stability index of 2.33. ITWFKDFLPVYTSNNNGRIKQLRS [D11Y] showed a protein stability index of 1.67. For ITWFKDFLPVDASNNNGRIKQLRS [T12A], the protein stability index was 1.98. For ITWFKDFLPVDCSNNNGRIKQLRS [T12C], the protein stability index was 1.55. In the case of ITWFKDFLPVDDSNNNGRIKQLRS [T12D], the protein stability index is reported as 1.99. For ITWFKDFLPVDESNNNGRIKQLRS [T12E], the protein stability index was 2.06. With ITWFKDFLPVDFSNNNGRIKQLRS [T12F] the protein stability index was 1.65. With ITWFKDFLPVDGSNNNGRIKQLRS [T12G] the protein stability index was 1.83. ITWFKDFLPVDHSNNNGRIKQLRS [T12H] showed a protein stability index of 1.48. ITWFKDFLPVDISNNNGRIKQLRS [T12I] gave a protein stability index of 2.01. For ITWFKDFLPVDKSNNNGRIKQLRS [T12K], the protein stability index was 2.01. Variant ITWFKDFLPVDLSNNNGRIKQLRS [T12L] has a protein stability index of 1.94. ITWFKDFLPVDMSNNNGRIKQLRS [T12M] gave a protein stability index of 2.32. With ITWFKDFLPVDNSNNNGRIKQLRS [T12N] the protein stability index was 1.51. Variant ITWFKDFLPVDPSNNNGRIKQLRS [T12P] has a protein stability index of 2.03. ITWFKDFLPVDQSNNNGRIKQLRS [T12Q] gave a protein stability index of 2.25. With ITWFKDFLPVDRSNNNGRIKQLRS [T12R] the protein stability index was 1.9. Work on ITWFKDFLPVDSSNNNGRIKQLRS [T12S] yielded a protein stability index of 1.94. With ITWFKDFLPVDVSNNNGRIKQLRS [T12V] the protein stability index was 2.42. ITWFKDFLPVDWSNNNGRIKQLRS [T12W] showed a protein stability index of 1.84. For ITWFKDFLPVDYSNNNGRIKQLRS [T12Y], the protein stability index was 1.55. In the case of ITWFKDFLPVDTANNNGRIKQLRS [S13A], the protein stability index is reported as 1.62. For ITWFKDFLPVDTCNNNGRIKQLRS [S13C], the protein stability index was 1.54. With ITWFKDFLPVDTDNNNGRIKQLRS [S13D] the protein stability index was 2.22. With ITWFKDFLPVDTENNNGRIKQLRS [S13E] the protein stability index was 1.7. In the case of ITWFKDFLPVDTFNNNGRIKQLRS [S13F], the protein stability index is reported as 1.52. Variant ITWFKDFLPVDTGNNNGRIKQLRS [S13G] has a protein stability index of 1.77. ITWFKDFLPVDTHNNNGRIKQLRS [S13H] gave a protein stability index of 2.05. For ITWFKDFLPVDTINNNGRIKQLRS [S13I], the protein stability index was 1.41. In the case of ITWFKDFLPVDTKNNNGRIKQLRS [S13K], the protein stability index is reported as 1.77. With ITWFKDFLPVDTLNNNGRIKQLRS [S13L] the protein stability index was 1.88. ITWFKDFLPVDTMNNNGRIKQLRS [S13M] showed a protein stability index of 2.17. For ITWFKDFLPVDTNNNNGRIKQLRS [S13N], the protein stability index was 1.68. Variant ITWFKDFLPVDTPNNNGRIKQLRS [S13P] has a protein stability index of 2.34. For ITWFKDFLPVDTQNNNGRIKQLRS [S13Q], the protein stability index was 1.85. ITWFKDFLPVDTRNNNGRIKQLRS [S13R] gave a protein stability index of 1.88. With ITWFKDFLPVDTTNNNGRIKQLRS [S13T] the protein stability index was 1.95. Variant ITWFKDFLPVDTVNNNGRIKQLRS [S13V] has a protein stability index of 2.38. Work on ITWFKDFLPVDTWNNNGRIKQLRS [S13W] yielded a protein stability index of 1.65. In the case of ITWFKDFLPVDTYNNNGRIKQLRS [S13Y], the protein stability index is reported as 2.05. Work on ITWFKDFLPVDTSANNGRIKQLRS [N14A] yielded a protein stability index of 2.03. Variant ITWFKDFLPVDTSCNNGRIKQLRS [N14C] has a protein stability index of 1.52. Variant ITWFKDFLPVDTSDNNGRIKQLRS [N14D] has a protein stability index of 1.66. ITWFKDFLPVDTSENNGRIKQLRS [N14E] showed a protein stability index of 2.05. ITWFKDFLPVDTSFNNGRIKQLRS [N14F] showed a protein stability index of 1.5. With ITWFKDFLPVDTSGNNGRIKQLRS [N14G] the protein stability index was 1.92. In the case of ITWFKDFLPVDTSHNNGRIKQLRS [N14H], the protein stability index is reported as 1.37. Variant ITWFKDFLPVDTSINNGRIKQLRS [N14I] has a protein stability index of 1.85. For ITWFKDFLPVDTSKNNGRIKQLRS [N14K], the protein stability index was 2.04. ITWFKDFLPVDTSLNNGRIKQLRS [N14L] gave a protein stability index of 1.96. ITWFKDFLPVDTSMNNGRIKQLRS [N14M] showed a protein stability index of 1.79. ITWFKDFLPVDTSPNNGRIKQLRS [N14P] showed a protein stability index of 2.37. ITWFKDFLPVDTSQNNGRIKQLRS [N14Q] showed a protein stability index of 2.02. ITWFKDFLPVDTSRNNGRIKQLRS [N14R] gave a protein stability index of 1.98. In the case of ITWFKDFLPVDTSSNNGRIKQLRS [N14S], the protein stability index is reported as 2.94. Work on ITWFKDFLPVDTSTNNGRIKQLRS [N14T] yielded a protein stability index of 1.76. ITWFKDFLPVDTSVNNGRIKQLRS [N14V] gave a protein stability index of 1.76. For ITWFKDFLPVDTSWNNGRIKQLRS [N14W], the protein stability index was 2.16. ITWFKDFLPVDTSYNNGRIKQLRS [N14Y] showed a protein stability index of 1.51. Work on ITWFKDFLPVDTSNANGRIKQLRS [N15A] yielded a protein stability index of 1.61. ITWFKDFLPVDTSNCNGRIKQLRS [N15C] showed a protein stability index of 2.26. ITWFKDFLPVDTSNDNGRIKQLRS [N15D] showed a protein stability index of 1.74. In the case of ITWFKDFLPVDTSNENGRIKQLRS [N15E], the protein stability index is reported as 1.69. ITWFKDFLPVDTSNFNGRIKQLRS [N15F] showed a protein stability index of 1.6. With ITWFKDFLPVDTSNGNGRIKQLRS [N15G] the protein stability index was 1.72. ITWFKDFLPVDTSNHNGRIKQLRS [N15H] gave a protein stability index of 1.48. Work on ITWFKDFLPVDTSNINGRIKQLRS [N15I] yielded a protein stability index of 1.58. ITWFKDFLPVDTSNKNGRIKQLRS [N15K] gave a protein stability index of 2.54. Work on ITWFKDFLPVDTSNLNGRIKQLRS [N15L] yielded a protein stability index of 2.37. ITWFKDFLPVDTSNMNGRIKQLRS [N15M] showed a protein stability index of 1.8. For ITWFKDFLPVDTSNPNGRIKQLRS [N15P], the protein stability index was 1.82.
